{"source": "patent US20210277411", "assay_in_all_cases": "cell_activity", "key": {"[1]": {"system": "TALE nuclease pair BnFAD2_T01 (synthetic construct)", "conditions": "Westar protoplasts"}, "[2]": {"system": "TALE nuclease pair BnFAD2_T02 (synthetic construct)", "conditions": "Westar protoplasts"}, "[3]": {"system": "TALE nuclease pair BnFAD2_T05 (synthetic construct)"}, "[4]": {"system": "TALE nuclease pair BnFAD2_T07 (synthetic construct)", "conditions": "Westar protoplasts"}, "[5]": {"system": "TALE nuclease pair BnFAD2_T03 (synthetic construct)", "conditions": "Westar protoplasts"}}, "data": [{"sequence": "TCCCCCACCCTCTCCCTTACCTCGCCTGGCCCCTCTACTGGGCCTGCCA (double strand) [BnFAD2_T01 site in BnaC.FAD2.b (SEQ ID NO:15)]", "values": [{"measurement": "activity (% mutagenesis)", "setting": "[1]; BnaC.FAD2.b, mismatched site", "result": 1.9}]}, {"sequence": "TCCCTCACCCTCTCTCCTACTTCGCCTGGCCTCTCTACTGGGCCTGCCA (double strand) [BnFAD2_T01 site in BnaA/BnaC.FAD2.a (SEQ ID NO:8)]", "values": [{"measurement": "activity (% mutagenesis)", "setting": "[1]; BnaA.FAD2.a, 25 C, 2 days, half-sites not demarcated", "result": 8.3}, {"measurement": "activity (% mutagenesis)", "setting": "[1]; BnaC.FAD2.a, 25 C, 2 days", "result": 10}]}, {"sequence": "TCGTCCCTTACTTCTCCTGGAAGTACAGTCATCGACGCCACCATTCCAA (double strand) [BnFAD2_T02 site in BnaA/BnaC.FAD2.a (SEQ ID NO:9)]", "values": [{"measurement": "activity (% mutagenesis)", "setting": "[2]; BnaA.FAD2.a", "result": 9.7}, {"measurement": "activity (% mutagenesis)", "setting": "[2]; BnaC.FAD2.a", "result": 10.3}]}, {"sequence": "TCGTCCCTTACTTCTCCTGGAAGTACGGCCATCGACGCCACCATTCCAA (double strand) [BnFAD2_T02 site in BnaC.FAD2.b (SEQ ID NO:17)]", "values": [{"measurement": "activity (% mutagenesis)", "setting": "[2]; BnaC.FAD2.b", "result": 5.5}]}, {"sequence": "TCTGGGTCATAGCCCACGAGTGCGGCCACCACGCCTTCAGCGACTACCA (double strand)", "values": [{"measurement": "activity (% mutagenesis)", "setting": "[3]; BnaA.FAD2.a, Westar protoplasts", "result": 3.8}, {"measurement": "activity (% mutagenesis)", "setting": "[3]; BnaC.FAD2.a, Westar protoplasts", "result": 4.4}, {"measurement": "activity (% mutagenesis)", "setting": "[4]; BnaA.FAD2.a", "result": 2.2}, {"measurement": "activity (% mutagenesis)", "setting": "[4]; BnaC.FAD2.a", "result": 2.8}]}, {"sequence": "TCTGGGTCATCGCCCACGAATGCGGCCACCACGCCTTCAGCGACCACCA (double strand) [BnFAD2_T05/T07 site in BnaC.FAD2.b (SEQ ID NO:14)]", "values": [{"measurement": "activity (% mutagenesis)", "setting": "[3]; BnaC.FAD2.b, printed as 23 but 1549/67387 reads = 2.3", "result": 2.3}, {"measurement": "activity (% mutagenesis)", "setting": "[4]; BnaC.FAD2.b", "result": 2.6}]}, {"sequence": "TGCGAGACACCACCCTTCACTCTCGGAGACCTCAAGAAAGCAATCCCA (double strand) [BnFAD2_T03 site in BnaC.FAD2.b (SEQ ID NO:19)]", "values": [{"measurement": "activity (% mutagenesis)", "setting": "[5]; BnaC.FAD2.b", "result": 10}]}, {"sequence": "TGCGAGACACCGCCCTTCACTGTCGGAGAACTCAAGAAAGCAATCCCA (double strand) [BnFAD2_T03 site in BnaA/BnaC.FAD2.a (SEQ ID NO:10)]", "values": [{"measurement": "activity (% mutagenesis)", "setting": "[5]; BnaA.FAD2.a", "result": 9}, {"measurement": "activity (% mutagenesis)", "setting": "[5]; BnaC.FAD2.a", "result": 9.8}]}]}
